{
  "source": "paper PMC4051164",
  "about": "“Multiple transcription factors directly regulate Hox gene lin-39 expression in ventral hypodermal cells of the C. elegans embryo and larva, including the hypodermal fate regulators LIN-26 and ELT-6”",
  "binders": {"B1": {"name": "ECR2 (dsDNA)", "DNA 1": "CCCATATGCTTCCTGCTGTGTGTGGCACGAGCGCCAATAA", "DNA 2": "TTATTGGCGCTCGTGCCACACACAGCAGGAAGCATATGGG"}, "B2": {"name": "YF4-3 (dsDNA)", "DNA 1": "GAGCAAGAGATGTGCTCTCGGCTCCACGAACCTCTTTGATCTATGCCGACAGTGGGGGAGATTGGAGAAGAAGCATGCTCCACCCTTCACGTGTATCAGTACG", "DNA 2": "CGTACTGATACACGTGAAGGGTGGAGCATGCTTCTTCTCCAATCTCCCCCACTGTCGGCATAGATCAAAGAGGTTCGTGGAGCCGAGAGCACATCTCTTGCTC"}, "B3": {"name": "YF4-2 (dsDNA)", "DNA 1": "GAGCAAGAGATGTGCTCTCGGCTCCACGAACCTCTTTGATCTATGCCGACAGTGGGGGAGATTGGAGAAGAAGCATGCTCCACCCTTCACGTGTATCAGTACGTCTGCGTCTTCTTGTGCGTGCCGCCCGGATTAGAAGACATGAAGTGGGAGGGCGATAGAGGAAATTCCGATGGCAATACCAAC", "DNA 2": "GTTGGTATTGCCATCGGAATTTCCTCTATCGCCCTCCCACTTCATGTCTTCTAATCCGGGCGGCACGCACAAGAAGACGCAGACGTACTGATACACGTGAAGGGTGGAGCATGCTTCTTCTCCAATCTCCCCCACTGTCGGCATAGATCAAAGAGGTTCGTGGAGCCGAGAGCACATCTCTTGCTC"}, "B4": {"name": "YF4-4 (dsDNA)", "DNA 1": "GCTCCACCCTTCACGTGTATCAGTACGTCTGCGTCTTCTTGTGCGTGCCGCCCGGATTAGAAGACATGAAGTGGGAGGGCGATAGAGGAAATTCCGATGGCAATACCAAC", "DNA 2": "GTTGGTATTGCCATCGGAATTTCCTCTATCGCCCTCCCACTTCATGTCTTCTAATCCGGGCGGCACGCACAAGAAGACGCAGACGTACTGATACACGTGAAGGGTGGAGC"}},
  "key": {"ALR-1": {"target": "ALR-1 (Caenorhabditis elegans, UniProt Q21836 1-362)", "sequence (Q21836 whole entry)": "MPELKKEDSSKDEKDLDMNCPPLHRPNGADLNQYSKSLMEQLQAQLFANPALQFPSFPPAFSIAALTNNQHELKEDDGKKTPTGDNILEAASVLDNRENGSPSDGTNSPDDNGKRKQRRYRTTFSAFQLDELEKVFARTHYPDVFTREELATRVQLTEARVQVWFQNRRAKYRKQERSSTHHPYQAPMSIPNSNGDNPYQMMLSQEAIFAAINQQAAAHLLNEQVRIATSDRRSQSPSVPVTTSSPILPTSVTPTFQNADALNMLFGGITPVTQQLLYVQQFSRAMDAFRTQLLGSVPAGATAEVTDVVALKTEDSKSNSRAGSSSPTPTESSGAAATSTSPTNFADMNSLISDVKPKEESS", "assay": "EMSA; self competes; 50 mM KCl, 20 mM HEPES pH 7.9, 0.2 mM EDTA, 0.5 mM DTT, 3 mM MgCl2, 1 ug poly(dI-dC), 0.5 ug/ul BSA, 0-800 ng protein, 20 ul, 20 min on ice (4 C)", "conditions": "protein: recombinant; tags: N-terminal 6His (pQE-80L); label: 32P; blunt"}, "ZTF-17 [1]": {"target": "T1, ZTF-17 (Caenorhabditis elegans, UniProt P45972 1-705)", "T1 sequence": "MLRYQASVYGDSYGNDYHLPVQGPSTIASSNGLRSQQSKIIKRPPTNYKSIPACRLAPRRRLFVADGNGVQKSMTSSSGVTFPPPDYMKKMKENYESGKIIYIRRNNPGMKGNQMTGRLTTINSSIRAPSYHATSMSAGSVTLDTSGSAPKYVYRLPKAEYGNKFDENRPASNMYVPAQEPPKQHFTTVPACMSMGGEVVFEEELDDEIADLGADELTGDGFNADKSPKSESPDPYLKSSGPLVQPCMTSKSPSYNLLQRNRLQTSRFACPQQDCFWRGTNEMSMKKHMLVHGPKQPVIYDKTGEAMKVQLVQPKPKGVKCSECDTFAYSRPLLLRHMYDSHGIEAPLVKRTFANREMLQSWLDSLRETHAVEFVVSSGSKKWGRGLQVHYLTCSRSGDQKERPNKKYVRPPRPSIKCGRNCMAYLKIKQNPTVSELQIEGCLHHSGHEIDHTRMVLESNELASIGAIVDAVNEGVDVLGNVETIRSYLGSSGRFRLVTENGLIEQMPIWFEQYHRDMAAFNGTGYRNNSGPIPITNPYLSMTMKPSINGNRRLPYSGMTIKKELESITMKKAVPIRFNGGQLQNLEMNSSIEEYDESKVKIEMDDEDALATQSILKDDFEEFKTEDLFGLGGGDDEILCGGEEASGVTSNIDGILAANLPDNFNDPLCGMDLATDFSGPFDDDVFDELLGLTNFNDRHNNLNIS", "assay": "competition; cold competitor vs YF4-2; 50 mM KCl, 20 mM HEPES pH 7.9, 0.2 mM EDTA, 0.5 mM DTT, 3 mM MgCl2, 1 ug poly(dI-dC), 0.5 ug/ul BSA, 0-800 ng protein, 20 ul, 20 min on ice (4 C)", "conditions": "protein: recombinant; tags: N-terminal 6His (pQE-80L); blunt"}, "ZTF-17 [2]": {"target": "T1, ZTF-17", "assay": "EMSA; 50 mM KCl, 20 mM HEPES pH 7.9, 0.2 mM EDTA, 0.5 mM DTT, 3 mM MgCl2, 1 ug poly(dI-dC), 0.5 ug/ul BSA, 0-800 ng protein, 20 ul, 20 min on ice (4 C)", "conditions": "protein: recombinant; tags: N-terminal 6His (pQE-80L); label: 32P; blunt"}, "ZTF-17 [3]": {"target": "T1, ZTF-17", "assay": "EMSA; also competes vs YF4-2; 50 mM KCl, 20 mM HEPES pH 7.9, 0.2 mM EDTA, 0.5 mM DTT, 3 mM MgCl2, 1 ug poly(dI-dC), 0.5 ug/ul BSA, 0-800 ng protein, 20 ul, 20 min on ice (4 C)", "conditions": "protein: recombinant; tags: N-terminal 6His (pQE-80L); label: 32P (probe); blunt"}},
  "data": [
    {"binder": "B1", "values": [
      {"measurement": "binding result", "setting": "ALR-1", "value": "binds"}
    ]},
    {"binder": "B2", "values": [
      {"measurement": "binding result", "setting": "ZTF-17 [1]", "value": "no binding"}
    ]},
    {"binder": "B3", "values": [
      {"measurement": "binding result", "setting": "ZTF-17 [2]", "value": "binds"}
    ]},
    {"binder": "B4", "values": [
      {"measurement": "binding result", "setting": "ZTF-17 [3]", "value": "binds"}
    ]}
  ]
}
